Results reported in patent US6475781.

Tests used:
[1] = target: human PDGF-B (c-sis) (human) (UniProt P01127); assay: cell-based or functional assay
[2] = target: wildtype murine PDGF A chain (murine) (UniProt P20033); assay: cell-based or functional assay

Sequence of human PDGF-B (c-sis) (human) (P01127 82-190 limits assumed): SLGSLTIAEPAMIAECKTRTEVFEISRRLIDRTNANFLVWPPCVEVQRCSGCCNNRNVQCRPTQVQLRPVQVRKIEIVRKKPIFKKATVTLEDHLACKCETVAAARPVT

Substance: PDGF A dominant negative mutant 1308 (murine PDGF A chain with the third cysteine residue changed to serine) (from UniProt P20033 87-196) (ligand)
- growth of PDGF-B (c-sis) transformed Balb/c 3T3 sublines in PPP-supplemented medium [1]: 90 % inhibition
- growth of PDGF-A transformed Balb/c 3T3 sublines in PPP-supplemented medium (% suppression) [2]: 70
